Each block holds one sequence with its values, some of them ahead of it.
What was measured:
HLA-B*27:03 [1] = experiment: IEDB peptide-MHC binding, purified MHC/competitive/fluorescence; filed as Kd, often an IC50 or EC50 that approximates it; ≥ and ≤ were set here for values at or beyond the usual limits of such assays
HLA-B*51:01 [2] = experiment: as above
HLA-A*29:02 = experiment: as above; settings: source organism: Salmonella enterica subsp. enterica serovar Paratyphi A str. AKU_12601
HLA-B*57:01 [3] = experiment: as above
HLA-B*39:01 [4] = experiment: as above
HLA-A*24:03 = experiment: as above
HLA-A*02:19 [5] = experiment: as above
HLA-B*15:01 [6] = experiment: as above
HLA-A*02:12 [7] = experiment: as above
HLA-A*02:11 [8] = experiment: as above
HLA-B*18:01 = experiment: as above
HLA-B*46:01 [9] = experiment: as above
HLA-A*03:01 [10] = experiment: as above
HLA-A*26:01 [11] = experiment: as above
HLA-A*02:03 [12] = experiment: as above
HLA-A*02:01 [13] = experiment: as above
HLA-B*15:17 = experiment: as above; settings: source organism: Salmonella enterica subsp. enterica serovar Paratyphi A str. AKU_12601
HLA-B*15:02 = experiment: as above
HLA-A*02:06 = experiment: as above
HLA-A*02:16 [14] = experiment: as above
HLA-A*11:01 = experiment: IEDB peptide-MHC binding, purified MHC/direct/fluorescence; filed as Kd, often an IC50 or EC50 that approximates it; ≥ and ≤ were set here for values at or beyond the usual limits of such assays
HLA-A*31:01 = experiment: IEDB peptide-MHC binding, purified MHC/competitive/fluorescence; filed as Kd, often an IC50 or EC50 that approximates it; ≥ and ≤ were set here for values at or beyond the usual limits of such assays
HLA-A*69:01 [15] = experiment: as above; settings: source organism: Human immunodeficiency virus type 1 (ELI ISOLATE)
HLA-B*07:02 [16] = experiment: as above; settings: source organism: Mycobacterium tuberculosis variant bovis BCG str. Pasteur 1173P2
HLA-A*02:16 [17] = experiment: IEDB peptide-MHC binding, purified MHC/direct/fluorescence; filed as Kd, often an IC50 or EC50 that approximates it; ≥ and ≤ were set here for values at or beyond the usual limits of such assays; settings: source organism: Escherichia coli O157:H7 str. EC869
HLA-B*27:03 [18] = experiment: as above; settings: source organism: Escherichia coli O157:H7 str. EC869
HLA-B*51:01 [19] = experiment: as above; settings: source organism: Escherichia coli O157:H7 str. EC869
HLA-A*68:02 = experiment: as above; settings: source organism: Escherichia coli O157:H7 str. EC869
HLA-B*57:01 [20] = experiment: as above; settings: source organism: Escherichia coli O157:H7 str. EC869
HLA-B*07:02 [21] = experiment: as above; settings: source organism: Escherichia coli O157:H7 str. EC869
HLA-B*39:01 [22] = experiment: as above; settings: source organism: Escherichia coli O157:H7 str. EC869
HLA-A*02:19 [23] = experiment: as above; settings: source organism: Escherichia coli O157:H7 str. EC869
HLA-B*15:01 [24] = experiment: as above; settings: source organism: Escherichia coli O157:H7 str. EC869
HLA-A*02:12 [25] = experiment: as above; settings: source organism: Escherichia coli O157:H7 str. EC869
HLA-B*35:01 = experiment: as above; settings: source organism: Escherichia coli O157:H7 str. EC869
HLA-A*02:11 [26] = experiment: as above; settings: source organism: Escherichia coli O157:H7 str. EC869
HLA-B*46:01 [27] = experiment: as above; settings: source organism: Escherichia coli O157:H7 str. EC869
HLA-A*69:01 [28] = experiment: as above; settings: source organism: Escherichia coli O157:H7 str. EC869
HLA-A*03:01 [29] = experiment: as above; settings: source organism: Escherichia coli O157:H7 str. EC869
HLA-A*26:01 [30] = experiment: as above; settings: source organism: Escherichia coli O157:H7 str. EC869
HLA-A*02:03 [31] = experiment: as above; settings: source organism: Escherichia coli O157:H7 str. EC869
HLA-A*02:01 [32] = experiment: as above; settings: source organism: Escherichia coli O157:H7 str. EC869
[33] = source organism: Salmonella enterica subsp. enterica serovar Paratyphi A str. AKU_12601
[34] = source organism: Escherichia coli ATCC 8739
[35] = source organism: Vibrio cholerae 2740-80
[36] = source organism: Giardia lamblia ATCC 50803
[37] = source organism: Human immunodeficiency virus type 1 (ELI ISOLATE)
[38] = source organism: Mycobacterium tuberculosis variant bovis BCG str. Pasteur 1173P2

Sequence: AMDTHLYFE
Kd (HLA-B*27:03 [1]; [33]): ≥ 20 µM | Kd (HLA-B*51:01 [2]; [33]): ≥ 20 µM | Kd (HLA-A*29:02): ≥ 20 µM | Kd (HLA-B*57:01 [3]; [33]): ≥ 20 µM | Kd (HLA-B*39:01 [4]; [33]): ≥ 20 µM | Kd (HLA-A*24:03; [33]): ≥ 20 µM | Kd (HLA-A*02:19 [5]; [33]): ≥ 20000 nM | Kd (HLA-B*15:01 [6]; [33]): ≥ 20 µM | Kd (HLA-A*02:12 [7]; [33]): 284 nM | Kd (HLA-A*02:11 [8]; [33]): 53.9 nM | Kd (HLA-B*18:01; [33]): ≥ 20 µM | Kd (HLA-B*46:01 [9]; [33]): ≥ 20 µM | Kd (HLA-A*03:01 [10]; [33]): ≥ 20 µM | Kd (HLA-A*26:01 [11]; [33]): ≥ 20 µM | Kd (HLA-A*02:03 [12]; [33]): ≥ 20 µM | Kd (HLA-A*02:01 [13]; [33]): ≥ 20000 nM | Kd (HLA-B*15:17): ≥ 20 µM

Sequence: FILSGRFSY
Kd (HLA-B*15:02; source organism: Shigella flexneri): 396 nM

Kd (HLA-A*02:06; [34]): 1550 nM | Kd (HLA-A*02:01 [13]; [34]): 119 nM
Sequence: GLLDWGMQQ

Sequence: GLYQGIVGF
Kd (HLA-B*15:02; source organism: Rickettsia prowazekii str. Madrid E): 59.6 nM

Sequence: HMLVVIRKY
Kd (HLA-B*15:02; source organism: Clostridium botulinum A str. ATCC 3502): 194 nM

Sequence: IFIRTIYYH
Kd (HLA-A*02:16 [14]; [35]): ≥ 20 µM | Kd (HLA-B*27:03 [1]; [35]): ≥ 20 µM | Kd (HLA-B*51:01 [2]; [35]): ≥ 20 µM | Kd (HLA-B*57:01 [3]; [35]): ≥ 20 µM | Kd (HLA-B*39:01 [4]; [35]): ≥ 20 µM | Kd (HLA-A*24:03; [35]): ≥ 20 µM | Kd (HLA-A*02:19 [5]; [35]): ≥ 20000 nM | Kd (HLA-B*15:01 [6]; [35]): ≥ 20 µM | Kd (HLA-A*02:12 [7]; [35]): ≥ 20000 nM | Kd (HLA-A*02:11 [8]; [35]): ≥ 20000 nM | Kd (HLA-B*18:01; [35]): ≥ 20 µM | Kd (HLA-B*46:01 [9]; [35]): ≥ 20 µM | Kd (HLA-A*03:01 [10]; [35]): ≥ 20 µM | Kd (HLA-A*26:01 [11]; [35]): ≥ 20 µM | Kd (HLA-A*02:03 [12]; [35]): ≥ 20 µM | Kd (HLA-A*02:01 [13]; [35]): ≥ 20000 nM

Sequence: ILRDGQRWY
Kd (HLA-B*15:02; source organism: Yersinia pestis CO92): 55.2 nM

Sequence: LTYRHKVVK
Kd (HLA-A*11:01; source organism: West Nile virus): 29.8 nM | Kd (HLA-A*31:01; source organism: Japanese encephalitis virus): 23.9 nM

Sequence: MARPADASM
Kd (HLA-A*02:16 [14]; [36]): ≥ 20 µM | Kd (HLA-B*27:03 [1]; [36]): ≥ 20 µM | Kd (HLA-B*57:01 [3]; [36]): 0.121 µM | Kd (HLA-B*39:01 [4]; [36]): ≥ 20 µM | Kd (HLA-A*24:03; [36]): ≥ 20 µM | Kd (HLA-A*02:19 [5]; [36]): ≥ 20000 nM | Kd (HLA-A*02:12 [7]; [36]): ≥ 20000 nM | Kd (HLA-A*02:11 [8]; [36]): ≥ 20000 nM | Kd (HLA-B*18:01; [36]): ≥ 20 µM | Kd (HLA-B*46:01 [9]; [36]): 2.2 µM | Kd (HLA-A*03:01 [10]; [36]): ≥ 20 µM | Kd (HLA-A*26:01 [11]; [36]): ≥ 20 µM | Kd (HLA-A*02:03 [12]; [36]): ≥ 20 µM | Kd (HLA-A*02:01 [13]; [36]): ≥ 20000 nM

Sequence: QLLDFLLAY
Kd (HLA-B*15:02; source organism: Shigella dysenteriae Sd197): 55.8 nM

Sequence: SLGQHIYET
Kd (HLA-A*02:06; [37]): 11 nM | Kd (HLA-A*02:16 [14]; [37]): 0.006 µM | Kd (HLA-A*02:19 [5]; [37]): 84 nM | Kd (HLA-A*02:12 [7]; [37]): 22.5 nM | Kd (HLA-A*69:01 [15]): ≥ 20 µM | Kd (HLA-A*02:03 [12]; [37]): 0.0065 µM | Kd (HLA-A*02:01 [13]; [37]): 12 nM

Sequence: SLYEKSGSV
Kd (HLA-B*07:02 [16]): ≥ 20 µM | Kd (HLA-A*02:19 [5]; [38]): 130 nM | Kd (HLA-A*02:12 [7]; [38]): 34.1 nM | Kd (HLA-A*02:11 [8]; [38]): 1.1 nM | Kd (HLA-A*02:03 [12]; [38]): ≤ 0.001 µM

Sequence: SYYCAGLKK
Kd (HLA-A*11:01; source organism: Dengue virus 1 Singapore/S275/1990): 80.1 nM | Kd (HLA-A*31:01; source organism: dengue virus type 1): 1960 nM

Kd (HLA-A*02:16 [17]): ≥ 20 µM | Kd (HLA-B*27:03 [18]): ≥ 20 µM | Kd (HLA-B*51:01 [19]): ≥ 20 µM | Kd (HLA-A*68:02): ≥ 20 µM | Kd (HLA-B*57:01 [20]): ≥ 20 µM | Kd (HLA-B*07:02 [21]): ≥ 20 µM | Kd (HLA-B*39:01 [22]): ≥ 20 µM | Kd (HLA-A*02:19 [23]): ≥ 20 µM | Kd (HLA-B*15:01 [24]): 180 nM | Kd (HLA-A*02:12 [25]): ≥ 20 µM | Kd (HLA-B*35:01): 6 nM | Kd (HLA-A*02:11 [26]): ≥ 20 µM | Kd (HLA-B*46:01 [27]): ≥ 20 µM | Kd (HLA-A*69:01 [28]): ≥ 20 µM | Kd (HLA-A*03:01 [29]): ≥ 20 µM | Kd (HLA-A*26:01 [30]): ≥ 20 µM | Kd (HLA-A*02:03 [31]): ≥ 20 µM | Kd (HLA-A*02:01 [32]): ≥ 20 µM
Sequence: YGSWFGLIY

Reference: the Immune Epitope Database (IEDB)
